Results published in PMC2649695 (Circulation research, 2009).

Target: T1, GST-MBS 683-866 (UniProt O14974 683-866)
T1 sequence (looked up): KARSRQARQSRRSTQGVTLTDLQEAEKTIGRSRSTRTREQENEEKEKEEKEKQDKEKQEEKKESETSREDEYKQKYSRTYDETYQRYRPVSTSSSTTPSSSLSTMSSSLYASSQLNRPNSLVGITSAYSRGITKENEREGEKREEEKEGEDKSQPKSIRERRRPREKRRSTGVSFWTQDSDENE
Assay: pull-down

B1: Myc-tagged ROCK2 (natural protein, UniProt O75116 1-1388, looked up)
chain: MSRPPPTGKMPGAPETAPGDGAGASRQRKLEALIRDPRSPINVESLLDGLNSLVLDLDFPALRKNKNIDNFLNRYEKIVKKIRGLQMKAEDYDVVKVIGRGAFGEVQLVRHKASQKVYAMKLLSKFEMIKRSDSAFFWEERDIMAFANSPWVVQLFYAFQDDRYLYMVMEYMPGGDLVNLMSNYDVPEKWAKFYTAEVVLALDAIHSMGLIHRDVKPDNMLLDKHGHLKLADFGTCMKMDETGMVHCDTAVGTPDYISPEVLKSQGGDGFYGRECDWWSVGVFLYEMLVGDTPFYADSLVGTYSKIMDHKNSLCFPEDAEISKHAKNLICAFLTDREVRLGRNGVEEIRQHPFFKNDQWHWDNIRETAAPVVPELSSDIDSSNFDDIEDDKGDVETFPIPKAFVGNQLPFIGFTYYRENLLLSDSPSCRETDSIQSRKNEESQEIQKKLYTLEEHLSNEMQAKEELEQKCKSVNTRLEKTAKELEEEITLRKSVESALRQLEREKALLQHKNAEYQRKADHEADKKRNLENDVNSLKDQLEDLKKRNQNSQISTEKVNQLQRQLDETNALLRTESDTAARLRKTQAESSKQIQQLESNNRDLQDKNCLLETAKLKLEKEFINLQSALESERRDRTHGSEIINDLQGRICGLEEDLKNGKILLAKVELEKRQLQERFTDLEKEKSNMEIDMTYQLKVIQQSLEQEEAEHKATKARLADKNKIYESIEEAKSEAMKEMEKKLLEERTLKQKVENLLLEAEKRCSLLDCDLKQSQQKINELLKQKDVLNEDVRNLTLKIEQETQKRCLTQNDLKMQTQQVNTLKMSEKQLKQENNHLMEMKMNLEKQNAELRKERQDADGQMKELQDQLEAEQYFSTLYKTQVRELKEECEEKTKLGKELQQKKQELQDERDSLAAQLEITLTKADSEQLARSIAEEQYSDLEKEKIMKELEIKEMMARHKQELTEKDATIASLEETNRTLTSDVANLANEKEELNNKLKDVQEQLSRLKDEEISAAAIKAQFEKQLLTERTLKTQAVNKLAEIMNRKEPVKRGNDTDVRRKEKENRKLHMELKSEREKLTQQMIKYQKELNEMQAQIAEESQIRIELQMTLDSKDSDIEQLRSQLQALHIGLDSSSIGSGPGDAEADDGFPESRLEGWLSLPVRNNTKKFGWVKKYVIVSSKKILFYDSEQDKEQSNPYMVLDIDKLFHVRPVTQTDVYRADAKEIPRIFQILYANEGESKKEQEFPVEPVGEKSNYICHKGHEFIPTLYHFPTNCEACMKPLWHMFKPPPALECRRCHIKCHKDHMDKKEEIIAPCKVYYDISTAKNLLLLANSTEEQQKWVSRLVKKIPKKPPAPDPFARSSPRTSMKIQQNQSIRRPSRQLAPNKPS
fold bound relative to mycROCK1: 2 fold
